Where a chain is given by its changes, count along the chain named.
Assays:
[1] = target: T1, human CTLA-4 expressed on cells (human, UniProt P16410 36-223); experiment: flow cytometry on HEK293-hCTLA-4 cells
T1 construct: whole, on cells; On stably or transiently transfected HEK293 cells; also called hCTLA-4; HEK293-hCTLA-4 cells
Method: To test the binding of antibodies to CTLA-4 under more physiological conditions, the binding of CTLA-4 antibodies to cell-surface CTLA-4 was tested. […] The surface expression of hCTLA-4 in the obtained cell line was tested using a commercial anti-CTLA-4 antibody and compared to the parent cell line (HEK293 without transfection). […] The anti-CTLA-4 antibodies were incubated in serial dilution concentrations with the HEK293-hCTLA-4 cells for 1 hour on ice. Following a wash step, an anti-human antibody conjugated to ALEXA FLUOR® 647® was added for an additional hour. The cells were washed, and propidium iodide (PI) was added to exclude dead cells. The fluorescent signal was measured using FACS and analyzed. Dead cells were removed based on the PI signal. The population was gated based on forward and side scatter (FSC and SSC) parameters, and doublets were removed. The Median Fluorescent Intensity (MFI) of the appropriate channel was calculated for the live single cells from each group. The MFI was plotted versus antibody concentration in Prism software (V6.01) and kinetic parameters were obtained using a curve fit dose response function with four parameters. […] The lower EC₅₀ values indicate increased binding affinity to cell surface hCTLA-4.

[2] = target: T1, human CTLA-4 expressed on cells; experiment: flow cytometry on HEK293 cells overexpressing human CTLA-4, serial dilution, MFI
Method: HEK293 cells were prepared as described above. […] Binding was measured using FACS.

[3] = target: T2, Recombinant human CTLA-4-his (Sino Biologicals, 11159-H08H) (human, UniProt P16410 36-162); experiment: SPR (Biacore T100), antibody captured on anti-human chip, CTLA-4-his in solution
T2 construct: Bought protein; also called dimer hCTLA-4; not shown: his tag
T2 sequence (P16410 36-162 limits assumed): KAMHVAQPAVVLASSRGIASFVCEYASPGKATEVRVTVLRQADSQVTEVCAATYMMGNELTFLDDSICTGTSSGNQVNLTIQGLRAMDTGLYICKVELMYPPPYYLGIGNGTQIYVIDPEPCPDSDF
Method: Recombinant human CTLA-4-his (Sino Biologicals, 11159-H08H) was added in a serial 2-fold dilution, starting at a concentration of 500nM. […] The measurement was corrected using the baseline channel and the protein-antibody interaction was measured by the change in surface resonance and quantified with Biacore T100 control software (version 2.0.4).

[4] = target: T3, Pig (Sus scrofa) CTLA-4 on HEK293 cells (Sus scrofa, UniProt Q9MYX7 36-223); experiment: flow cytometry on HEK293 cells transiently expressing pig CTLA-4
T3 construct: whole, on cells; also called pig CTLA-4
T3 sequence (Q9MYX7 36-223): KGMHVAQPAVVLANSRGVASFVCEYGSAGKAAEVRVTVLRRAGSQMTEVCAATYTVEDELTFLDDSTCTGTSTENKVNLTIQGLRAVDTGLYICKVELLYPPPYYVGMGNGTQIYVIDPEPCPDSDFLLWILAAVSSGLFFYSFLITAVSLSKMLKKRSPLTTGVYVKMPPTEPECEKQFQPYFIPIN
Method: Macaque (Macaca fascicularis), pig (Sus scrofa) and mouse (Mus musculus) CTLA-4 proteins were transiently expressed on the surface of HEK293 cells. […] Binding was measured using FACS and analyzed.

hPDL2 on HEK293 cells = target: T4, hPDL2 on HEK293 cells (human, UniProt Q9BQ51 20-273); experiment: flow cytometry on transfected HEK293 cells
T4 construct: whole, on cells
T4 sequence (looked up): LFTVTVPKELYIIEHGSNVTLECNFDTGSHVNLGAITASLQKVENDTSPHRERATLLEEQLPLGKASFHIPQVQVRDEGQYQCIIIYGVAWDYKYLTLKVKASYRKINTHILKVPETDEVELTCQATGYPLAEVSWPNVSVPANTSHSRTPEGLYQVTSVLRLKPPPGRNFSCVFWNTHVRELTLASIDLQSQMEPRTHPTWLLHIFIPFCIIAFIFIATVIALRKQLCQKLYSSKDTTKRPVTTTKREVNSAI
Method: (§1) HEK293 cells were transfected with expression vectors of the following immune-related proteins: hBTLA, hICOS, hCD28, hPDL1, hPD1, hPDL2, and hCTLA-4. Over-expression of the proteins was verified using commercial antibodies against each target. […] Antibody binding to cells was then detected using flow cytometry. Cells that were incubated only with the secondary antibody were used as a background control. […] Note that “+” indicates binding above the background level and “-” indicate no binding as compared to the background level.

hBTLA on HEK293 cells = target: T5, hBTLA on HEK293 cells (human, UniProt Q7Z6A9 31-289); experiment: flow cytometry on transfected HEK293 cells
T5 construct: whole, on cells
Method: as §1

hCD28 on HEK293 cells = target: T6, hCD28 on HEK293 cells (human, UniProt P10747 19-220); experiment: flow cytometry on transfected HEK293 cells
T6 construct: whole, on cells
Method: as §1

hPDL1 on HEK293 cells = target: T7, hPDL1 on HEK293 cells (human, UniProt Q9NZQ7 19-290); experiment: flow cytometry on transfected HEK293 cells
T7 construct: whole, on cells
T7 sequence (Q9NZQ7 19-290): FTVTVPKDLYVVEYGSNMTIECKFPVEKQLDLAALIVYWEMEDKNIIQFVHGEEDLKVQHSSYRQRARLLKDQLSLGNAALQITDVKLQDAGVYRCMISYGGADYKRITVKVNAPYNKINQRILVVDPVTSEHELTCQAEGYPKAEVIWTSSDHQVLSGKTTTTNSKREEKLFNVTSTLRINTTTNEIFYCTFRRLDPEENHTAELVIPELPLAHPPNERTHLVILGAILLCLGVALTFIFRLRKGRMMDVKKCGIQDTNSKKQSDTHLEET
Method: as §1

hPD1 on HEK293 cells = target: T8, hPD1 on HEK293 cells (human, UniProt Q15116 25-288); experiment: flow cytometry on transfected HEK293 cells
T8 construct: whole, on cells
T8 sequence (Q15116 25-288): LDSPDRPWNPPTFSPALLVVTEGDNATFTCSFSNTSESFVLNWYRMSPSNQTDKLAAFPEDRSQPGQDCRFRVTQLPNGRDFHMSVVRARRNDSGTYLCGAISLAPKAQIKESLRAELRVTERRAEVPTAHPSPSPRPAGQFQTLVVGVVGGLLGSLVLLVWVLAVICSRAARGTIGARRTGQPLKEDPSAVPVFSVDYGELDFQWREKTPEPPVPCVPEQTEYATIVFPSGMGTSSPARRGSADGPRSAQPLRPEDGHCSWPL
Method: as §1

hICOS on HEK293 cells = target: T9, hICOS on HEK293 cells (human, UniProt Q9Y6W8 21-199); experiment: flow cytometry on transfected HEK293 cells
T9 construct: whole, on cells
T9 sequence (looked up): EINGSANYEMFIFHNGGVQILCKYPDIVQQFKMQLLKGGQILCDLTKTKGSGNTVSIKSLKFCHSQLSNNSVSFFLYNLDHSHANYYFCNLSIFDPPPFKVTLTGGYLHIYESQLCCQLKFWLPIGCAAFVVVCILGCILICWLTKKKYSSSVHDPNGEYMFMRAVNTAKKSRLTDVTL
Method: as §1

T1 sequence (P16410 36-223): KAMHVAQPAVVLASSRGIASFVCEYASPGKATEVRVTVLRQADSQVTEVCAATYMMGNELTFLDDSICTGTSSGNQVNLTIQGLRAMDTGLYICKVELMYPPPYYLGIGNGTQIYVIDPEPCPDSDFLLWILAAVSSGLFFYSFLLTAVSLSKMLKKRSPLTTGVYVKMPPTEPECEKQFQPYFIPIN

B1: Ab55h-PM21 (antibody, V domains shown)
VH: QVQLQESGPGLVKPSETLSLTCAVSGYSISGDYYWGWIRQPPGKGLEWIGSIYHSGYTYYNPSLKSRVTISVDTSKNQFSLKLSSVTAADTAVYYCARDSGWYVIAFDYWGQGTLVTVSS
VL: EIVMTQSPATLSVSPGERATLSCRASQSVSSNLAWYQEKPGQAPRLLIYGASTRATGIPARFSGSGSGTEFTLTISSLQSEDFAVYYCQQYNNSPPLTFGGGTKVEIK
EC50 [1]: 0.22 nM

B2: Ab55h-PM-R5 (antibody, V domains shown)
VH: B1 VH
VL: B1 VL with N92G, S94W
EC50 (read off the curve) [2]: ~0.2 nM

B3: Ab55h-PM-R9 (antibody, V domains shown)
VH: B1 VH with Y103S
VL: B1 VL with S94W
binding result [2]: binds

B4: Ab55h-PM26 (antibody, V domains shown)
VH: B1 VH with S100V, W102F, Y109I
VL: B1 VL with S94W
EC50 [1]: 0.35 nM

B5: Ab55h-PM24 (antibody, V domains shown)
VH: B1 VH with S100V, Y109I
VL: B1 VL with S94W
EC50 [1]: 0.2 nM

B6: Ab55h-PM22 (antibody, V domains shown)
VH: B1 VH
VL: B1 VL with S94W, L97I
EC50 [1]: 0.09 nM

B7: Ab55h-PM25 (antibody, V domains shown)
VH: B1 VH with S100V, W102F
VL: B1 VL with S94W
EC50 [1]: 0.34 nM

B8: Ab55h-PM-R6 (antibody, V domains shown)
VH: B1 VH
VL: B1 VL with N93S, S94W
binding result [2]: binds

B9: Ab55h-PM28 (antibody, V domains shown)
VH: B1 VH with A106G, F107Y
VL: B1 VL with S94W
EC50 [1]: 0.31 nM

B10: Ab55h-PM23 (antibody, V domains shown)
VH: B1 VH
VL: B1 VL with S94W, L97F
EC50 [1]: 0.22 nM

B11: Ab55h-PM27 (antibody, V domains shown)
VH: B1 VH with W102F, Y109I
VL: B1 VL with S94W
EC50 [1]: 0.2 nM

B12: Ab47h (antibody, V domains shown)
VH: QVQLVESGGGVVQPGRSLRLSCAASGFTFSNYGIHWVRQAPGKGLEWVAAIWYDGNNKYYADSVKDRFTISRDNSKNTLYLQMNSLRVEDTAVYYCARNGVLGAFDIWGQGTMVTVSS
VL: DIQMTQSPSSLSASVGDRVTITCRASQGISNYLAWYQQKPGKVPKLLIYAASTLQSGVPSRFSGSGSGTDFTLTISSLQPEDVATYYCQKYNSSPWTFGQGTKVEIK
Kd [3]: 10 nM

B13: Ipilimumab (antibody, V domains shown)
VH: QVQLVESGGGVVQPGRSLRLSCAASGFTFSSYTMHWVRQAPGKGLEWVTFISYDGNNKYYADSVKGRFTISRDNSKNTLYLQMNSLRAEDTAIYYCARTGWLGPFDYWGQGTLVTVSS
VL: not shown
EC50 [4]: 671 nM | MFI (hPDL2 on HEK293 cells): 73 MFI | MFI (hBTLA on HEK293 cells): 67 MFI | MFI (hCD28 on HEK293 cells): 67 MFI | MFI (hPDL1 on HEK293 cells): 70 MFI | MFI (hPD1 on HEK293 cells): 77 MFI | MFI (hICOS on HEK293 cells): 67 MFI

Source: patent US20210355220A1 (TIKCRO TECHNOLOGIES, published 2021)
